Target: T1, Recombinant GST-IRTKS (mouse, UniProt Q9DBJ3 1-514)
T1 construct: IRTKS, cloned from a murine bone marrow library, subcloned into pGEX-6p-1; also called recombinant IRTKS; source: E. coli (pGEX-6p-1), recombinant
T1 sequence (looked up): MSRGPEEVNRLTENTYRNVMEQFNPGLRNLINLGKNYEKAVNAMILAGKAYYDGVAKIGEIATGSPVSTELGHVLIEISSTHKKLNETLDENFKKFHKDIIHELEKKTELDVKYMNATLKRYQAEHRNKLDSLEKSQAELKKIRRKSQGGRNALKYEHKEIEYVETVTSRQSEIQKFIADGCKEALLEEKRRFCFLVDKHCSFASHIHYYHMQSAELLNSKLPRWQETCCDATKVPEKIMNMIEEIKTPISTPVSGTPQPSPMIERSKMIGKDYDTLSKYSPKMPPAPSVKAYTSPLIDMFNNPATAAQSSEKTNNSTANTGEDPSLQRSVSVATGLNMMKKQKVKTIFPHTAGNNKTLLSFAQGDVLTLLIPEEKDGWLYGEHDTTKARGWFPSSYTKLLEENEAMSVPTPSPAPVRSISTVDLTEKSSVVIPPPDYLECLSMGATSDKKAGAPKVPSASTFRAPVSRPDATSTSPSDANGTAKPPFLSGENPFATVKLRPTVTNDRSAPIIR
Assay: pull-down; GST pull-down: recombinant GST-tagged IRTKS or its truncations incubated with the recombinant partner
Conditions: both partners purified

binding result: binds
B1: Recombinant PCBP2 (natural protein, mouse, UniProt Q61990 1-362, looked up)
chain: MDTGVIEGGLNVTLTIRLLMHGKEVGSIIGKKGESVKKMREESGARINISEGNCPERIITLAGPTNAIFKAFAMIIDKLEEDISSSMTNSTAASRPPVTLRLVVPASQCGSLIGKGGCKIKEIRESTGAQVQVAGDMLPNSTERAITIAGIPQSIIECVKQICVVMLESPPKGVTIPYRPKPSSSPVIFAGGQDRYSTGSDSASFPHTTPSMCLNPDLEGPPLEAYTIQGQYAIPQPDLTKLHQLAMQQSHFPMTHGNTGFSGIESSSPEVKGYWAGLDASAQTTSHELTIPNDLIGCIIGRQGAKINEIRQMSGAQIKIANPVEGSTDRQVTITGSAASISLAQYLINVRLSSETGGMGSS
notes: PCBP2, cloned from a murine bone marrow library; source: recombinant (E. coli constructs in pGEX-6p-1 and pET-28a are described)
